{"source": "paper PMC4893024", "origin": "cited, not measured here", "target": "Cys39 (UniProt position 39, TSPYECGFDPM)", "experiment": "not stated (the cited study [29] is described as SH-reagent sensitivity/labelling of bovine heart SMP with N-ethylmaleimide and N-fluorescein maleimide)", "conditions": "Deactive (D) form of complex I, with Cys-39 exposed", "data": [{"substance": "NADH-ubiquinone oxidoreductase chain 3 (ND3 subunit of mitochondrial complex I) (Bos taurus)", "values": [{"measurement": "pKa", "result": 10.2}]}]}
